Patent publication US20240279325A1 (Chugai, published 2024)
Where two headings read alike, the source gives them in different places.

Legend:
[1] = molecular target: T1, FcγRIa extracellular domain, C-terminal His tag (human, UniProt P12314 16-292); experiment: SPR (Biacore), antibody captured on chip, FcγR extracellular domain as analyte, 25 C
T1 construct: extracellular domain; not shown: His tag at the C terminus

[2] = molecular target: T2, human FcγRIIb extracellular domain with C-terminal His tag (human, UniProt P31994 43-217); experiment: SPR (Biacore), antibody captured, FcγR analyte
T2 construct: extracellular domain; not shown: His tag at the C terminus
T2 sequence (looked up): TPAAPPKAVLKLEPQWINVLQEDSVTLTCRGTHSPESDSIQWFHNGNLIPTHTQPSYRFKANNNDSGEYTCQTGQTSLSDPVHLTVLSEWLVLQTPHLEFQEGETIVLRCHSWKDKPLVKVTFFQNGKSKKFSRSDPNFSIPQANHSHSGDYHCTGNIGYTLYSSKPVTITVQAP

[3] = molecular target: T3, human FcγRIIa type H (allotype H131) extracellular domain with C-terminal His tag (human, UniProt P12318 34-217); experiment: SPR (Biacore), antibody captured, FcγR analyte
T3 construct: extracellular domain; also called FcγRIIaH; not shown: His tag at the C terminus
T3 sequence (looked up): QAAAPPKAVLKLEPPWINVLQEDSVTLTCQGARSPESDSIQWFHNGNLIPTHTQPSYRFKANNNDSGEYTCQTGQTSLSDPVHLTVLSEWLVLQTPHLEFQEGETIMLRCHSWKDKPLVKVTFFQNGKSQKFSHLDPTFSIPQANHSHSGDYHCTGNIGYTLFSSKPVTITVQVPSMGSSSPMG

[4] = molecular target: T4, human FcγRIIIa type V (allotype V158) extracellular domain with C-terminal His tag (human, UniProt P08637 17-208); experiment: SPR (Biacore), captured antibody, FcγR analyte
T4 construct: also called FcγRIIIaV; FcγRIIIa V type

[5] = molecular target: T5, human FcγRIIa type H (allotype H131) extracellular domain with C-terminal His tag (human, UniProt P12318 34-217); experiment: SPR (Biacore), captured antibody, FcγR analyte
T5 construct: also called FcγRIIaH
T5 sequence: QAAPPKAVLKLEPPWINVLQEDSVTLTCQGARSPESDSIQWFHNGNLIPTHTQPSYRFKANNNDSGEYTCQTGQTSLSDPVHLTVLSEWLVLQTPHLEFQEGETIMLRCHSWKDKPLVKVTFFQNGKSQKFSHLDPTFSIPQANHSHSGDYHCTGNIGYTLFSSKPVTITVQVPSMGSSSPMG

[6] = molecular target: T6, human FcγRIIa type R (allotype R131) extracellular domain with C-terminal His tag (human, UniProt P12318 34-217); experiment: SPR (Biacore), captured antibody, FcγR analyte
T6 construct: also called FcγRIIaR
T6 chain: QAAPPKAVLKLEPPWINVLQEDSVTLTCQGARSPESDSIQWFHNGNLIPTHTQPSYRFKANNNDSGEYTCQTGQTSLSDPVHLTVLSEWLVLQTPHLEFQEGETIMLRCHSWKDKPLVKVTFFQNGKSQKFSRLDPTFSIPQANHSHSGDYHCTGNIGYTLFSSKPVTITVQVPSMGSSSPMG

[7] = molecular target: T7, human FcγRIIb extracellular domain with C-terminal His tag (human, UniProt P31994 43-217); experiment: ratio of SPR KDs (FcγRIIaR over FcγRIIb)
T7 sequence: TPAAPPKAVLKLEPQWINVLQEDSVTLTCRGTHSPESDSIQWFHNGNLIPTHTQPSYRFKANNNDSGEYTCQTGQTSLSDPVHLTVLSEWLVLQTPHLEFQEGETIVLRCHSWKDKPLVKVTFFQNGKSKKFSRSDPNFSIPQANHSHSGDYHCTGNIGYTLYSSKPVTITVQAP

[8] = molecular target: human FcγRIa extracellular domain with C-terminal His tag (human, UniProt P12314 16-292); experiment: SPR (Biacore), captured antibody, FcγR analyte
[9] = molecular target: T6, human FcγRIIa type R (allotype R131) …; experiment: SPR (Biacore), captured antibody, FcγR analyte
[10] = molecular target: T4, human FcγRIIIa type V (allotype V158) …; experiment: SPR (Biacore), captured antibody, FcγR analyte; remark: listed apart in the source
[11] = molecular target: T5, human FcγRIIa type H (allotype H131) …; experiment: SPR (Biacore), captured antibody, FcγR analyte; remark: listed apart in the source
[12] = molecular target: T7, human FcγRIIb extracellular domain with …; experiment: SPR (Biacore), captured antibody, FcγR analyte
[13] = molecular target: T6, human FcγRIIa type R (allotype R131) …; experiment: ratio of SPR KDs, reference IL6R-B3/IL6R-L
[14] = molecular target: T7, human FcγRIIb extracellular domain with …; experiment: ratio of SPR KDs, reference IL6R-B3/IL6R-L
[15] = molecular target: T8, FcγRIa extracellular domain with C-terminal His tag (human, UniProt P12314 16-292); experiment: SPR (Biacore), antibody captured, FcγR as analyte
T8 construct: extracellular domain

[16] = molecular target: T9, FcγRIIIa type V (allotype V158) extracellular domain with C-terminal His tag (human, UniProt P08637 17-208); experiment: SPR (Biacore), antibody captured, FcγR as analyte
T9 construct: extracellular domain; also called FcγRIIIaV; FcγRIIIa V type

[17] = molecular target: T10, FcγRIIb extracellular domain with C-terminal His tag (human, UniProt P31994 43-217); experiment: SPR (Biacore), antibody captured, FcγR as analyte
T10 construct: extracellular domain
T10 sequence (looked up): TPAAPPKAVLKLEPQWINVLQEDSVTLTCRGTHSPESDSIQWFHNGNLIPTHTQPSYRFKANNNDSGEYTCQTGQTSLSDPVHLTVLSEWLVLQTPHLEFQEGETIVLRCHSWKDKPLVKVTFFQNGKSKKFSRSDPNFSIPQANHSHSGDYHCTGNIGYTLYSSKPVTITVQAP

[18] = molecular target: T11, FcγRIIa type R (allotype R131) extracellular domain with C-terminal His tag (human, UniProt P12318 34-217); experiment: SPR (Biacore), antibody captured, FcγR as analyte
T11 construct: extracellular domain; also called FcγRIIaR; FcγRIIa R type
T11 sequence (looked up): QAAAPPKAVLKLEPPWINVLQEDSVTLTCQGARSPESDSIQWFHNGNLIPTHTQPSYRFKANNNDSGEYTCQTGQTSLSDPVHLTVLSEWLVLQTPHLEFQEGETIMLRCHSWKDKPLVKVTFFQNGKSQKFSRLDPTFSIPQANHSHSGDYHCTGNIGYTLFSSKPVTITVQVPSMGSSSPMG

T4 sequence (P08637 other isoform, or with tags, fused parts or gaps): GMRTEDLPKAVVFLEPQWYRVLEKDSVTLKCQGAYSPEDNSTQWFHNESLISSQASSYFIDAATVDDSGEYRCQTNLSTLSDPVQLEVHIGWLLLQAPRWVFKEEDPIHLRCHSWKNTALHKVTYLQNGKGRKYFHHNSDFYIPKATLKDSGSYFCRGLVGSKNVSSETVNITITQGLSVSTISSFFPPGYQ
T8 sequence (P12314 16-292): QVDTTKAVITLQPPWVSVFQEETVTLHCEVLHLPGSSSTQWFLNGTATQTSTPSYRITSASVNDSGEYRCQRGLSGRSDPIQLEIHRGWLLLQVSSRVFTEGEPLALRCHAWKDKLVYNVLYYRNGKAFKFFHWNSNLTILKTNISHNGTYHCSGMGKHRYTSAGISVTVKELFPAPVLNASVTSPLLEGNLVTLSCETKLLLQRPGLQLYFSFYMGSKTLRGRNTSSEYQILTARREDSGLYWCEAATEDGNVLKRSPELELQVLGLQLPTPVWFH
human FcγRIa extracellular domain with C-terminal His tag, sequence (P12314 16-292): as above
T1 sequence (P12314 16-292): as above
T9 sequence (P08637 17-208 F176V): as the sequence (P08637 other isoform, or with tags, fused parts or gaps) above, with S179A counted along it

B1: IL6R-BP182/IL6R-L (antibody, human IgG1, kappa, name in EU numbering)
heavy: QVQLQESGPGLVKPSETLSLTCAVSGHSISHDHAWSWVRQPPGEGLEWIGFISYSGITNYNPSLQGRVTISRDNSKNTLYLQMNSLRAEDTAVYYCARSLARTTAMDYWGEGTLVTVSSASTKGPSVFPLAPSSKSTSGGTAALGCLVKDYFPEPVTVSWNSGALTSGVHTFPAVLQSSGLYSLSSVVTVPSSSLGTQTYICNVNHKPSNTKVDKKVEPKSCDKTHTCPPCPAPDLLGGDSVFLFPPKPKDTLMISRTPEVTCVVVDVSHEDGEVKFNWYVDGVEVHNAKTKPREEQDNSTYRVVSVLTVLHQDWLNGKEYKCKVSNKALPKPIEKTISKAKGQPREPQVYTLPPSRDELTKNQVSLTCLVKGFYPSDIAVEWESNGQPENNYKTTPPVLDSDGSFFLYSKLTVDKSRWQQGNVFSCSVMHEALHNHYTQESLSLSP
light: not shown
notes: copies: 2 + 2
Kd [1]: 20 nM

B2: IL6R-BP202/IL6R-L (antibody, human IgG1, kappa, name in EU numbering)
heavy: QVQLQESGPGLVKPSETLSLTCAVSGHSISHDHAWSWVRQPPGEGLEWIGFISYSGITNYNPSLQGRVTISRDNSKNTLYLQMNSLRAEDTAVYYCARSLARTTAMDYWGEGTLVTVSSASTKGPSVFPLAPSSKSTSGGTAALGCLVKDYFPEPVTVSWNSGALTSGVHTFPAVLQSSGLYSLSSVVTVPSSSLGTQTYICNVNHKPSNTKVDKKVEPKSCDKTHTCPPCPAPELLGDDSVFLFPPKPKDTLMISRTPEVTCVVVDVSHEDGEVKFNWYVDGVEVHNAKTKPREEQYNSTYRVVSVLTVLHQDWLNGKEYKCKVSNAALPRPIEKTISKAKGQPREPQVYTLPPSRDELTKNQVSLTCLVKGFYPSDIAVEWESNGQPENNYKTTPPVLDSDGSFFLYSKLTVDKSRWQQGNVFSCSVMHEALHNHYTQESLSLSP
light: not shown
notes: EU numbering; copies: 2 + 2
Kd [2]: 54 nM
Kd [3]: 92000 nM

B3: IL6R-BP462/IL6R-L (antibody, human IgG1, kappa, name in EU numbering)
heavy: QVQLQESGPGLVKPSETLSLTCAVSGHSISHDHAWSWVRQPPGEGLEWIGFISYSGITNYNPSLQGRVTISRDNSKNTLYLQMNSLRAEDTAVYYCARSLARTTAMDYWGEGTLVTVSSASTKGPSVFPLAPSSKSTSGGTAALGCLVKDYFPEPVTVSWNSGALTSGVHTFPAVLQSSGLYSLSSVVTVPSSSLGTQTYICNVNHKPSNTKVDKKVEPKSCDKTHTCPPCPAPDLLGDDSVFLFPPKPKDTLMISRTPEVTCVVVDVAEEDGEVKFNWYVDGVEVHNAKTKPREEQYNSTYRVVSVLTVLHQDWLNGKEYKCKVSNKALPRPIEKTISKAKGQPREPQVYTLPPSRDELTKNQVSLTCLVKGFYPSDIAVEWESNGQPENNYKTTPVVLDSDGSFFLYSKLTVDKSRWQQGNVFSCSVMHEALHNHYTQESLSLSP
light: not shown
notes: copies: 2 + 2
Kd [4]: 9000 nM

B4: IL6R-BP470/IL6R-L (antibody, human IgG1, kappa, name in EU numbering)
heavy: QVQLQESGPGLVKPSETLSLTCAVSGHSISHDHAWSWVRQPPGEGLEWIGFISYSGITNYNPSLQGRVTISRDNSKNTLYLQMNSLRAEDTAVYYCARSLARTTAMDYWGEGTLVTVSSASTKGPSVFPLAPSSKSTSGGTAALGCLVKDYFPEPVTVSWNSGALTSGVHTFPAVLQSSGLYSLSSVVTVPSSSLGTQTYICNVNHKPSNTKVDKKVEPKSCDKTHTCPPCPAPDLLGDDSVFLFPPKPKDTLMISRTPEVTCVVVDVSDEDGEVKFNWYVDGVEVHNAKTKPREEQDNSTYRVVSVLTVLHQDWLNGKEYKCKVSNKALPRPITKTISKAKGQPREPQVYTLPPSRDELTKNQVSLTCLVKGFYPSDIAVEWESNGQPENNYKTTPPVLDSDGSFFLYSKLTVDKSRWQQGNVFSCSVMHEALHNHYTQESLSLSP
light: not shown
notes: copies: 2 + 2
Kd [5]: 10000 nM

B5: IL6R-BP514/IL6R-L (antibody, human IgG1, kappa, name in EU numbering)
heavy: QVQLQESGPGLVKPSETLSLTCAVSGHSISHDHAWSWVRQPPGEGLEWIGFISYSGITNYNPSLQGRVTISRDNSKNTLYLQMNSLRAEDTAVYYCARSLARTTAMDYWGEGTLVTVSSASTKGPSVFPLAPSSKSTSGGTAALGCLVKDYFPEPVTVSWNSGALTSGVHTFPAVLQSSGLYSLSSVVTVPSSSLGTQTYICNVNHKPSNTKVDKKVEPKSCDKTHTCPPCPAPDLLGDDSVFLFPPKPKDTLMISRTPEVTCVVVDVSEEDGFVKFNWYVDGVEVHNAKTKPREEQYNSTYRVVSVLTVLHQDWLNGKEYKCKVSNKALPAPIEKTISKAKGQPREPQVYTLPPSRDELTKNQVSLTCLVKGFYPSDIAVEWESNGQPENNYKTTPPVLDSDGSFFLYSKLTVDKSRWQQGNVFSCSVMHEALHNHYTQESLSLSP
light: not shown
notes: copies: 2 + 2
Kd [6]: 3000 nM

B6: IL6R-BP478/IL6R-L (antibody)
heavy: QVQLQESGPGLVKPSETLSLTCAVSGHSISHDHAWSWVRQPPGEGLEWIGFISYSGITNYNPSLQGRVTISRDNSKNTLYLQMNSLRAEDTAVYYCARSLARTTAMDYWGEGTLVTVSSASTKGPSVFPLAPCSRSTSESTAALGCLVKDYFPEPVTVSWNSGALTSGVHTFPAVLQSSGLYSLSSVVTVPSSSLGTKTYTCNVDHKPSNTKVDKRVESKYGPPCPPCPAPDLLGDDSVFLFPPKPKDTLMISRTPEVTCVVVDVSDEDGEVKFNWYVDGVEVHNAKTKPREEQDNSTYRVVSVLTVLHQDWLNGKEYKCKVSNKALPRPIEKTISKAKGQPREPQVYTLPPSRDELTKNQVSLTCLVKGFYPSDIAVEWESNGQPENNYKTTPPVLDSDGSFFLYSKLTVDKSRWQQGNVFSCSVMHEALHNHYTQESLSLSP
light: not shown
notes: copies: 2 + 2
KD(IIaR)/KD(IIb) [7]: 28
Kd [8]: 7.7 nM
Kd [9]: 540 nM
Kd [10]: 35000 nM
Kd [11]: 6700 nM
Kd [12]: 19 nM
KD(IIaR) of parent polypeptide/KD(IIaR) of altered polypeptide [13]: 2
KD(IIb) of parent polypeptide/KD(IIb) of altered polypeptide [14]: 161

B7: IL6R-BP253/IL6R-L (antibody, human IgG1, kappa, name in EU numbering)
heavy: QVQLQESGPGLVKPSETLSLTCAVSGHSISHDHAWSWVRQPPGEGLEWIGFISYSGITNYNPSLQGRVTISRDNSKNTLYLQMNSLRAEDTAVYYCARSLARTTAMDYWGEGTLVTVSSASTKGPSVFPLAPSSKSTSGGTAALGCLVKDYFPEPVTVSWNSGALTSGVHTFPAVLQSSGLYSLSSVVTVPSSSLGTQTYICNVNHKPSNTKVDKKVEPKSCDKTHTCPPCPAPELLGGPSVFLFPPKPKDTLMISRTPEVTCVVVDVEHEDPEVKFNWYVDGVEVHNAKTKPREEQYNSTYRVVSVLTVLHQDWLNGKEYKCKVSNKAFPAPIEKTISKAKGQPREPQVYTLPPSRDELTKNQVSLTCLVKGFYPSDIAVEWESNGQPENNYKTTPPVLDSDGSFFLYSKLTVDKSRWQQGNVFSCSVMHEALHNHYTQESLSLSP
light: not shown
notes: comparison control with existing alterations; copies: 2 + 2
Kd [15]: 0.0067 nM
Kd [16]: 3600 nM
Kd [17]: 11 nM
Kd [18]: 2.1 nM
